{"source": "paper PMC4709591", "key": {"[1]": {"molecular_target": "human toll-like receptor 5 (TLR5) (human) (UniProt O60602)", "sequence (O60602 21-858)": "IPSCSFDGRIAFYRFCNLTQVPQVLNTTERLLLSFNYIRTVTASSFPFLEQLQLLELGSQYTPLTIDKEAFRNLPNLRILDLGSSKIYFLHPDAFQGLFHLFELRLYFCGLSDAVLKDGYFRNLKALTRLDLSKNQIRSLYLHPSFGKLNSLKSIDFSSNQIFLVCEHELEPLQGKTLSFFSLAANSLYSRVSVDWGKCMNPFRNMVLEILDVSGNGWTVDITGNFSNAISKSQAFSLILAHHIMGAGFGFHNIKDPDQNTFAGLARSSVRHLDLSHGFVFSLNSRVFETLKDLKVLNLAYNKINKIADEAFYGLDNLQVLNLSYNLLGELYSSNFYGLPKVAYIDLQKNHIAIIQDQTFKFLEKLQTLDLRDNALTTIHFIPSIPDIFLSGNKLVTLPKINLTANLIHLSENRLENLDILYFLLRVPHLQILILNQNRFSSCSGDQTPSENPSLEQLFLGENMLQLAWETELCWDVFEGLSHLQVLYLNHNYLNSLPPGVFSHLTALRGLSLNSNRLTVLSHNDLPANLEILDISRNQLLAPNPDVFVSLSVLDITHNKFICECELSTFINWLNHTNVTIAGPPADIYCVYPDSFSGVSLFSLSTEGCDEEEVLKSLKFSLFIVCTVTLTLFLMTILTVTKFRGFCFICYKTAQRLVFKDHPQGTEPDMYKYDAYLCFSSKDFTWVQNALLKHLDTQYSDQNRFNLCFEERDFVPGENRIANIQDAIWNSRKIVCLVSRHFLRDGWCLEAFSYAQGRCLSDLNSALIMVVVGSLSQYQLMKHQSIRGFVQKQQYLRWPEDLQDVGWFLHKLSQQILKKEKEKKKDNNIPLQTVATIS"}, "[2]": {"molecular_target": "human toll-like receptor 5 (TLR5) (human) (UniProt O60602)", "remark": "listed apart in the source"}, "[3]": {"molecular_target": "human toll-like receptor 5 (TLR5) (human) (UniProt O60602)", "remark": "listed apart in the source"}, "[4]": {"molecular_target": "human toll-like receptor 5 (TLR5) (human) (UniProt O60602)", "remark": "listed apart in the source"}}}
{"substance": "flagellin (FliC) from S. typhimurium SL1344, full-length (from UniProt P06179 1-495) (natural protein)", "values": [{"measurement": "EC50 of bioactivity (SEAP reporter in HEK-Blue-hTLR5 cells)", "setting": "[1]", "result": 1.3, "unit": "pM"}]}
{"substance": "flagellin mutant SS1 (L12-N484 replaced with cysteine) (from UniProt P06179 1-495) (natural protein)", "values": [{"measurement": "EC50 of bioactivity (cell-based TLR5 stimulation assay); decreased against native flagellin", "setting": "[2]", "result": "< 10", "unit": "pM"}]}
{"substance": "flagellin mutant SS2 (Q22-Q473 replaced with cysteine) (from UniProt P06179 1-495) (natural protein)", "values": [{"measurement": "EC50 of bioactivity (cell-based TLR5 stimulation assay); decreased against native flagellin", "setting": "[2]", "result": "< 10", "unit": "pM"}]}
{"substance": "flagellin mutant SS3 (Q22-T477 replaced with cysteine) (from UniProt P06179 1-495) (natural protein)", "values": [{"measurement": "EC50 of bioactivity (cell-based TLR5 stimulation assay); decreased against native flagellin", "setting": "[2]", "result": "< 10", "unit": "pM"}]}
{"substance": "flagellin mutant SS4 (G35-S457 replaced with cysteine) (from UniProt P06179 1-495) (natural protein)", "values": [{"measurement": "EC50 of bioactivity (cell-based TLR5 stimulation assay); decreased against native flagellin", "setting": "[2]", "result": "< 10", "unit": "pM"}]}
{"substance": "flagellin mutant SS5 (L36-D456 replaced with cysteine) (from UniProt P06179 1-495) (natural protein)", "values": [{"measurement": "EC50 of bioactivity (cell-based TLR5 stimulation assay); decreased against native flagellin", "setting": "[2]", "result": "< 10", "unit": "pM"}]}
{"substance": "flagellin mutant SS6 (A51-R451 replaced with cysteine) (from UniProt P06179 1-495) (natural protein)", "values": [{"measurement": "EC50 of bioactivity (cell-based TLR5 stimulation assay); decreased against native flagellin", "setting": "[2]", "result": "< 10", "unit": "pM"}]}
{"substance": "flagellin without the C-terminal D0 domain (S452-R495) (from UniProt P06179 1-451) (domain or fragment)", "values": [{"measurement": "EC50 of bioactivity (SEAP reporter in HEK-Blue-hTLR5 cells)", "setting": "[1]", "result": 80, "unit": "pM"}]}
{"substance": "flagellin-HBc VLP conjugate with 2 flagellins on a VLP (1:40 reactant ratio) (from UniProt P06179 1-495) (complex)", "values": [{"measurement": "bioactivity against free flagellin (SEAP reporter in HEK-Blue-hTLR5 cells)", "setting": "[3]", "result": 7, "unit": "fold"}, {"measurement": "potency of TLR5 stimulation, based on flagellin concentration (SEAP reporter in HEK-Blue-hTLR5 cells)", "setting": "[4]", "result": 1, "unit": "pM"}]}
{"substance": "flagellin-HBc VLP conjugate with 10 flagellins on a VLP (1:10 reactant ratio) (from UniProt P06179 1-495) (complex)", "values": [{"measurement": "bioactivity against free flagellin (SEAP reporter in HEK-Blue-hTLR5 cells)", "setting": "[3]", "result": 7, "unit": "fold"}]}
{"substance": "flagellin-HBc VLP conjugate with 33 flagellins on a VLP (1:2 reactant ratio) (from UniProt P06179 1-495) (complex)", "values": [{"measurement": "bioactivity against free flagellin (SEAP reporter in HEK-Blue-hTLR5 cells)", "setting": "[3]", "result": 7, "unit": "fold"}, {"measurement": "potency of TLR5 stimulation, based on flagellin concentration (SEAP reporter in HEK-Blue-hTLR5 cells)", "setting": "[4]", "result": 1, "unit": "pM"}]}
{"substance": "soluble SS5 HIII flagellin (L36C-D456C; HPG1+A2I+M310I+M466I) (from UniProt P06179 1-495) (natural protein)", "values": [{"measurement": "minimum flagellin concentration stimulating the TLR5 receptors (SEAP reporter in HEK-Blue-hTLR5 cells)", "setting": "[3]", "result": 0.2, "unit": "pM"}]}
